Measured values as given in US20220323583A1, “Pharmaceutical Formulations of Bi-Specific Diabodies and Use of the Same” (MacroGenics, Inc., priority 2019, published 2022).

Tests used:
[1] = target: Cynomolgus CD3ε/δ (cynomolgus monkey) (UniProt Q95LI5); assay: kinetic binding measurement, method not stated
[2] = target: Human CD3ε/δ (human) (UniProt P07766); assay: kinetic binding measurement, method not stated
Chain of Human CD3ε/δ (human) (P07766 23-126, stated change not applied, chain 1 of 2): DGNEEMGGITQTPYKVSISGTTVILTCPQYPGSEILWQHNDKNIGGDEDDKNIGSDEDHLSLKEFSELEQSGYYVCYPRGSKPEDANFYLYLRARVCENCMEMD
Chain of Human CD3ε/δ (human) (P04234 22-105, stated change not applied, chain 2 of 2, further chain): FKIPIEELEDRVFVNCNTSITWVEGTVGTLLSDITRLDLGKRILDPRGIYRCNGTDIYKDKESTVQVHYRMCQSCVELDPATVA

B1: DART-A, sequence-optimized CD123×CD3 bispecific diabody (bispecific antibody)
chain 1: QAVVTQEPSLTVSPGGTVTLTCRSSTGAVTTSNYANWVQQKPGQAPRGLIGGTNKRAPWTPARFSGSLLGGKAALTITGAQAEDEADYYCALWYSNLWVFGGGTKLTVLGGGGSGGGGEVQLVQSGAELKKPGASVKVSCKASGYTFTDYYMKWVRQAPGQGLEWIGDIIPSNGATFYNQKFKGRVTITVDKSTSTAYMELSSLRSEDTAVYYCARSHLLRASWFAYWGQGTLVTVSSGGCGGGEVAALEKEVAALEKEVAALEKEVAALEK
chain 2: DFVMTQSPDSLAVSLGERVTMSCKSSQSLLNSGNQKNYLTWYQQKPGQPPKLLIYWASTRESGVPDRFSGSGSGTDFTLTISSLQAEDVAVYYCQNDYSYPYTFGQGTKLEIKGGGSGGGGEVQLVESGGGLVQPGGSLRLSCAASGFTFSTYAMNWVRQAPGKGLEWVGRIRSKYNNYATYYADSVKDRFTISRDDSKNSLYLQMNSLKTEDTAVYYCVRHGNFGNSYVSWFAYWGQGTLVTVSSGGCGGGKVAALKEKVAALKEKVAALKEKVAALKE
Kd [1]: 9.2 nM
koff [1]: 0.005 s⁻¹
kon [1]: 550000 M⁻¹ s⁻¹
Kd [2]: 9 nM
koff [2]: 0.005 s⁻¹
kon [2]: 570000 M⁻¹ s⁻¹
